Assays:
[1] = target: dimerization domain of ZEN-4 (residues 530 to 601) (C. elegans); experiment: crystal structure
[2] = target: NTD and CC region of CYK-4 (residues 1 to 120) (C. elegans); experiment: crystal structure

stoichiometry N [1] | stoichiometry N [2] | Substance
2 | – | dimerization domain of ZEN-4 (residues 530 to 601) (domain or fragment)
– | 2 | NTD and CC region of CYK-4 (residues 1 to 120) (domain or fragment)

— publication PMC8501884
